# Patent publication US6512102
# Chain of GSK3 (huGSK3myc), P49841 (P49841 whole entry, looked up, the tested form may be a part): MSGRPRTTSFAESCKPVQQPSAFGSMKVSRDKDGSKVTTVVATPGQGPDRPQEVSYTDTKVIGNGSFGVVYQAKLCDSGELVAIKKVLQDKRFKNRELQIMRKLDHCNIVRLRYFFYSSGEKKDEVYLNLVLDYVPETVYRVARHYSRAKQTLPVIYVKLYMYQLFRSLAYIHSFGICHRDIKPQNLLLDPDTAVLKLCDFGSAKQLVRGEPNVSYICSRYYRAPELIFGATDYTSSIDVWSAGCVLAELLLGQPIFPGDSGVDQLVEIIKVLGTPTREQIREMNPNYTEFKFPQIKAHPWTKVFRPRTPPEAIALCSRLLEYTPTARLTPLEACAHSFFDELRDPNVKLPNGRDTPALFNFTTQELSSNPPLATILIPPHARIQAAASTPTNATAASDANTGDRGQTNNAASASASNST
# Chain of β-catenin (P35222 2-781): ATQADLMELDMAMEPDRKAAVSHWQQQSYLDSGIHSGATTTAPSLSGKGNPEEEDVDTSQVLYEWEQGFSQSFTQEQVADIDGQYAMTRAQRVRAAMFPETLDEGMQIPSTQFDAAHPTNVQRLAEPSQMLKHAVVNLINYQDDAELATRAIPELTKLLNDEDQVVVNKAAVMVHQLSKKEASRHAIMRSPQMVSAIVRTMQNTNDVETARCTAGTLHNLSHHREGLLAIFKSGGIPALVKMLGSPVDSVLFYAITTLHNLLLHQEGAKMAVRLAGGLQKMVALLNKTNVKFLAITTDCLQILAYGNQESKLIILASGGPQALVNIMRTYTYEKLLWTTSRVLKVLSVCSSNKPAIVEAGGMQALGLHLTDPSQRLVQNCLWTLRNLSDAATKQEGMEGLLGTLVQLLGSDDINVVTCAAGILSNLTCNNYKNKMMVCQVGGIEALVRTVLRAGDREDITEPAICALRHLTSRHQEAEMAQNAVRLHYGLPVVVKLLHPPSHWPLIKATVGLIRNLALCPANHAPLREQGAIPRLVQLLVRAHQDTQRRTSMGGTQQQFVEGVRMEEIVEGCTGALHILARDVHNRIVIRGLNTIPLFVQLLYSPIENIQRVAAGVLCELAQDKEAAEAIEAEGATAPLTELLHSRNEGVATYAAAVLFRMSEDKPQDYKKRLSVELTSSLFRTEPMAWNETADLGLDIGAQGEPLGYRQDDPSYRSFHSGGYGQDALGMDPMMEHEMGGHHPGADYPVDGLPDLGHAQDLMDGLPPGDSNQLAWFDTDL
Protein,"in vitro kinase assay (phosphorylation of GSK3) (GSK3 (huGSK3myc), P49841)",in vitro phosphorylation (β-catenin),phosphorylation (Axin)
C-terminally truncated CKIε (protein) MELRVGNKYRLGRKIGSGSFGDIYLGANIASGEEVAIKLECVKTKHPQLHIESKFYKMMQGGVGIPSIKWCGAEGDYNVMVMELLGPSLEDLFNFCSRKFSLKTVLLLADQMISRIEYIHSKNFIHRDVKPDNFLMGLGKKGNLVYIIDFGLAKKYRDARTHQHIPYRENKNLTGTARYASINTHLGIEQSRRDDLESLGYVLMYFNLGSLPWQGLKAATKRQKYERISEKKMSTPIEVLCKGYPSEFSTYLNFCRSLRFDDKPDYSYLRQLFRNLFHRQGFSYDYVFDWNMLKFGAARNPED,"A truncated mutant, CKIε, where the C-terminus was deleted had intact kinase activity. It was immunoprecipitated using anti-HA antibody and mixed with Immunoprecipitated GSK3.",–,–
"mouse casein kinase I epsilon, HA-tagged (CKIε-HA) (protein) MELRVGNKYRLGRKIGSGSFGDIYLGANIASGEEVAIKLECVKTKHPQLHIESKFYKMMQGGVGIPSIKWCGAEGDYNVMVMELLGPSLEDLFNFCSRKFSLKTVLLLADQMISRIEYIHSKNFIHRDVKPDNFLMGLGKKGNLVYIIDFGLAKKYRDARTHQHIPYRENKNLTGTARYASINTHLGIEQSRRDDLESLGYVLMYFNLGSLPWQGLKAATKRQKYERISEKKMSTPIEVLCKGYPSEFSTYLNFCRSLRFDDKPDYSYLRQLFRNLFHRQGFSYDYVFDWNMLKFGAARNPEDVDRERREHEREERMGQLRGSATRALPPGPPTGATANRLRSAAEPVASTPASRIQQTGNTSPRAISRADRERKVSMRLHRGAPANVSSSDLTGRQEVSRLAASQTSVPFDHLGK",either purified CKIε protein or immunoprecipitated CKIε phosphorylated purified GSK3 protein as well as immunoprecipitated GSK3 protein,CKIε phosphorylates β-catenin in vitro,CKIε phosphorylates Axin
